Data on one molecule can be found in PMC13344149, “One-step purification of a bioactive PAK1-derived peptide” (Analytical biochemistry, 2025).

The stoichiometry N is a count of units in the complex or per binding partner. As usually defined, the Kd is the constant that tells how readily two partners part at equilibrium.

Series [1] deals with the molecule itself. Nature of the series: LC-MS; LC-MS of the heat-treated PBD46 sample; major species at 10.23 kDa.
Series [2] concerns the target T1, Cdc42 labelled with the extrinsic fluorophore sNBD (UniProt P60953 1-191, sNBD fluorophore (site not stated)).
T1 construct: Cdc42, small GTPase; also called sNBD-labeled Cdc42
Nature of the series: other fluorescence titration; Cdc42 labelled with the extrinsic fluorophore sNBD, PBD46 titrated; heat-purified and conventional PBD46 compared. Conditions: both partners purified.

T1 sequence (P60953 whole entry): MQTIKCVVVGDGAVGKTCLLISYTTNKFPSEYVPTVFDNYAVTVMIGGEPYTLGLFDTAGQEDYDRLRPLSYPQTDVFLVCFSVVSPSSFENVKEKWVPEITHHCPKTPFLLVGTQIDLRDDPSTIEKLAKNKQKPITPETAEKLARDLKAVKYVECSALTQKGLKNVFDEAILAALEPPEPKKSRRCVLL

B1: PBD46, 46-residue peptide from PAK1 (PAK1 CRIB domain, residues 67-112) (peptide, UniProt Q13153 67-112, looked up)
chain: KKEKERPEISLPSDFEHTIHVGFDAVTGEFTGMPEQWARLLQTSNI
notes: The heat-purified and the conventionally purified sample are the same construct from the same host; also called PAK1-derived peptide; heat-purified PBD46; source: E. coli, as GST-PBD46
On to B1, for which the “stoichiometry N” value in series [1] stood at 2. Besides, the Kd in series [2] is approximately 83 nM.
